What was measured:
[1] = target: T1, E1E2 glycoprotein complex on infectious cell culture-derived HCV particles (HCVcc) of strain JFH-1 (Hepatitis C virus genotype 2a, isolate …, UniProt Q99IB8); experiment: immunocapture of virus particles; conditions: one partner purified
T1 construct: source: concentrated HCVcc of infectious HCV strain JFH-1

[2] = target: genotype 2a JFH1 E1E2 displayed on retrovirus-based HCV pseudoparticles (HCVpp) (Hepatitis C virus genotype 2a, isolate …, UniProt Q99IB8); experiment: immunocapture of virus particles; conditions: one partner purified

B1: MAb DAO5 IgG (antibody, V domains shown)
VH: EVQLQQSGPELVKPGASLKISCKTSGYTFTDFTFHWVKLSHGPSLEWIGTIKPSNGDTAYNQKFKGKATLSVDKSASTAHIEFRSLTSEDSAVYFCARFGGSYPYAMDYWGQGTSVIVSS
VL: DIVLTQSPATLSVTPGDRVSLSCRASQGIYNYVHWFQQKSHESPRLLIKYASQSISGIPSRFSGSGSGTDFTLSINSVESEDFGMYFCQQTNKWPLTFGAGTKLELK
B1: binds [1]; binds [2].

Source: publication PMC5433095 (mBio, 2017)
